Assay results from US20210348152A1 (TECHNION RESEARCH AND DEVELOPMENT FOUNDATION, published 2021).

T1: KPC1Δ967-1043 (FLAG-tagged) (Homo sapiens (Human), UniProt Q5XPI4 1-1314)
T1 construct: also called KPC1 species vii
T1 sequence: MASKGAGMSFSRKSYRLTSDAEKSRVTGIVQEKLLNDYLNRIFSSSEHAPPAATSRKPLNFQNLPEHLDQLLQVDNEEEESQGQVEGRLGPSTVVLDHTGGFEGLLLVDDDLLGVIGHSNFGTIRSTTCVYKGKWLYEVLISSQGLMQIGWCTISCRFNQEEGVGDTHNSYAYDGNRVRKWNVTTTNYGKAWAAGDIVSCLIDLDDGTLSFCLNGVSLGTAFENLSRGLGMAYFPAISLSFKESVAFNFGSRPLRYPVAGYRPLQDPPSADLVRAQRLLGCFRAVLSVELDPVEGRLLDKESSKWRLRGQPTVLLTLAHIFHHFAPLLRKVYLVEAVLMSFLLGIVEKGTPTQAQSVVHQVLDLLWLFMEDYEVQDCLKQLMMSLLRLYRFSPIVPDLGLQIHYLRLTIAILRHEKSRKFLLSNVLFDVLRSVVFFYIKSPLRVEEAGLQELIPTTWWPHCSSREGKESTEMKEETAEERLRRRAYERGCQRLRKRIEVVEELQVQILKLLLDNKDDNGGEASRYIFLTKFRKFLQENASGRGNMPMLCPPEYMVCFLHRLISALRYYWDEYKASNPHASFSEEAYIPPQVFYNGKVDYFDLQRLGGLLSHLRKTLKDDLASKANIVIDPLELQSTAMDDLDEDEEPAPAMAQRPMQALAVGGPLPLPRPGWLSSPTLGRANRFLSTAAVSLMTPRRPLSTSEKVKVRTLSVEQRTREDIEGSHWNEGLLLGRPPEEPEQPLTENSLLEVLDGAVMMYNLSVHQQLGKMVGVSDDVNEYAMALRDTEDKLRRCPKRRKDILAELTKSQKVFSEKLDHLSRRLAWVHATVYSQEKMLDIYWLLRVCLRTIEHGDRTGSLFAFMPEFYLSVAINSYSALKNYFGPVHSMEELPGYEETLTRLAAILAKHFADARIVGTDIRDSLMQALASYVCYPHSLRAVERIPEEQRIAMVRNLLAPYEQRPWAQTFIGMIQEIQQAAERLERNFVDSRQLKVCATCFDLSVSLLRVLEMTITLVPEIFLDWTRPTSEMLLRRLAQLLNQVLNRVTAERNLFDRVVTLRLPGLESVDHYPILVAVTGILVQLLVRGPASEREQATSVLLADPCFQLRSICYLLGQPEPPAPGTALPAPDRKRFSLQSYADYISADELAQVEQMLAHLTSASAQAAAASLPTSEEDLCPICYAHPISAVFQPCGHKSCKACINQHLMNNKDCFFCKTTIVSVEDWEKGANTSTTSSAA

B1: p105-HA (other, UniProt P19838 1-968, looked up)
chain: MAEDDPYLGRPEQMFHLDPSLTHTIFNPEVFQPQMALPTDGPYLQILEQPKQRGFRFRYVCEGPSHGGLPGASSEKNKKSYPQVKICNYVGPAKVIVQLVTNGKNIHLHAHSLVGKHCEDGICTVTAGPKDMVVGFANLGILHVTKKKVFETLEARMTEACIRGYNPGLLVHPDLAYLQAEGGGDRQLGDREKELIRQAALQQTKEMDLSVVRLMFTAFLPDSTGSFTRRLEPVVSDAIYDSKAPNASNLKIVRMDRTAGCVTGGEEIYLLCDKVQKDDIQIRFYEEEENGGVWEGFGDFSPTDVHRQFAIVFKTPKYKDINITKPASVFVQLRRKSDLETSEPKPFLYYPEIKDKEEVQRKRQKLMPNFSDSFGGGSGAGAGGGGMFGSGGGGGGTGSTGPGYSFPHYGFPTYGGITFHPGTTKSNAGMKHGTMDTESKKDPEGCDKSDDKNTVNLFGKVIETTEQDQEPSEATVGNGEVTLTYATGTKEESAGVQDNLFLEKAMQLAKRHANALFDYAVTGDVKMLLAVQRHLTAVQDENGDSVLHLAIIHLHSQLVRDLLEVTSGLISDDIINMRNDLYQTPLHLAVITKQEDVVEDLLRAGADLSLLDRLGNSVLHLAAKEGHDKVLSILLKHKKAALLLDHPNGDGLNAIHLAMMSNSLPCLLLLVAAGADVNAQEQKSGRTALHLAVEHDNISLAGCLLLEGDAHVDSTTYDGTTPLHIAAGRGSTRLAALLKAAGADPLVENFEPLYDLDDSWENAGEDEGVVPGTTPLDMATSWQVFDILNGKPYEPEFTSDDLLAQGDMKQLAEDVKLQLYKLLEIPDPDKNWATLAQKLGLGILNNAFRLSPAPSKTLMDNYEVSGGTVRELVEALRQMGYTEAIEVIQAASSPVKTTSQAHSLPLSPASTRQQIDELRDSDSVCDSGVETSFRKLSFTESLTSGASLLTLNKMPHDYGQEGPLEGKI
notes: Co-expressed with FLAG-tagged KPC1 species in HEK293T cells and detected with anti-NF-κB1 after anti-FLAG immunoprecipitation; also called NF-κB1 p105; NF-kB1 p105; not shown: HA tag

Legend:
[1] = target: B1; experiment: co-immunoprecipitation (anti-FLAG) from HEK293T cells, western blot
Description: (§1) HEK293T cells were transiently transfected with the various KPC1 species along with p105-HA using the j etPEI reagent. 48 hours after transfection, the cells were harvested and lysed with RIPA buffer [150 mM NaCl, 0.5% sodium deoxycholate, 50 mM Tris-HCl (pH 8.0), 0.1% SDS, and 1% NP-40, supplemented with freshly added protease inhibitors mixture]. KPC1 species proteins were immunoprecipitated with immobilized anti-FLAG, with subsequent washing of the beads five times with RIPA buffer. The immunoprecipitated proteins were resolved by SDS-PAGE (10%, FIGS. 1A, 1B, 2A and 2B, with a gel gradient, of 4-20%; FIGS. 3A and 3B), and blotted onto nitrocellulose (FIGS. 1A, 1B, 2A and 2B) or PVDF (FIGS. 3A and 3B) membranes. p105 and KPC1 species were visualized using anti-NF-kB1 or anti-FLAG antibodies, respectively.
(§2) Identification of the region of KPC1 that is responsible for the interaction with p105. In order to identify the region of KPC1 that is responsible for the interaction with p105, several truncated segments of the DNA sequence of the KPC1 protein were cloned. The truncated segments were inserted into the pCAGGS expression vector to analyze their interaction with p105 by co-immunoprecipitation (Co-IP) from cells. HEK 293T cells were transfected with cDNAs coding for p105-HA, along with different fragments of KPC1 (FIG. 1A). Species of KPC1 were immunoprecipitated using an immobilized anti-Flag antibody. The precipitated proteins were resolved via SDS-PAGE and detected by Western blot using anti NF-κB1 and anti-FLAG antibodies.

[2] = target: T1, KPC1Δ967-1043 (FLAG-tagged); experiment: as above
Description: as §1, §2

binding result [1]	binding result [2]	Binder
no binding	–	KPC1Δ1-973 (FLAG-tagged) (enzyme, also called KPC1 species ix) WRGCGFGYRYTRLPHLLKTKLEDANLPSLQKPCPSTLLQQHMADLLQQGPDVAPSFLNSVLNQLNWAFSEFIGMIQEIQQAAERLERNFVDSRQLKVCATCFDLSVSLLRVLEMTITLVPEIFLDWTRPTSEMLLRRLAQLLNQVLNRVTAERNLFDRVVTLRLPGLESVDHYPILVAVTGILVQLLVRGPASEREQATSVLLADPCFQLRSICYLLGQPEPPAPGTALPAPDRKRFSLQSYADYISADELAQVEQMLAHLTSASAQAAAASLPTSEEDLCPICYAHPISAVFQPCGHKSCKACINQHLMNNKDCFFCKTTIVSVEDWEKGANTSTTSSAA
–	no binding	B1
no binding	–	ILVRLW-KPC1 Δ 1-1253 (enzyme, also called KPC1 species xii) ILVRLWCPICYAHPISAVFQPCGHKSCKACINQHLMNNKDCFFCKTTIVSVEDWEKGANTSTTSSAA
no binding	–	WILVRL-KPC1 Δ 1-1253 (enzyme, also called KPC1 species xvii) WILVRLCPICYAHPISAVFQPCGHKSCKACINQHLMNNKDCFFCKTTIVSVEDWEKGANTSTTSSAA
no binding	–	VRLW-KPC1 Δ 1-1253 (enzyme, also called KPC1 species xiv) VRLWCPICYAHPISAVFQPCGHKSCKACINQHLMNNKDCFFCKTTIVSVEDWEKGANTSTTSSAA
no binding	–	WILV-KPC1 Δ 1-1253 (enzyme, also called KPC1 species xix) WILVCPICYAHPISAVFQPCGHKSCKACINQHLMNNKDCFFCKTTIVSVEDWEKGANTSTTSSAA
no binding	–	KPC1 Δ 1-1253 (enzyme, also called KPC1 species xvi) CPICYAHPISAVFQPCGHKSCKACINQHLMNNKDCFFCKTTIVSVEDWEKGANTSTTSSAA
no binding	–	KPC1Δ1-1042 (FLAG-tagged) (enzyme, also called KPC1 species v) EFIGMIQEIQQAAERLERNFVDSRQLKVCATCFDLSVSLLRVLEMTITLVPEIFLDWTRPTSEMLLRRLAQLLNQVLNRVTAERNLFDRVVTLRLPGLESVDHYPILVAVTGILVQLLVRGPASEREQATSVLLADPCFQLRSICYLLGQPEPPAPGTALPAPDRKRFSLQSYADYISADELAQVEQMLAHLTSASAQAAAASLPTSEEDLCPICYAHPISAVFQPCGHKSCKACINQHLMNNKDCFFCKTTIVSVEDWEKGANTSTTSSAA
no binding	–	LVRLW-KPC1 Δ 1-1253 (enzyme, also called KPC1 species xiii) LVRLWCPICYAHPISAVFQPCGHKSCKACINQHLMNNKDCFFCKTTIVSVEDWEKGANTSTTSSAA
no binding	–	WILVR-KPC1 Δ 1-1253 (enzyme, also called KPC1 species xviii) WILVRCPICYAHPISAVFQPCGHKSCKACINQHLMNNKDCFFCKTTIVSVEDWEKGANTSTTSSAA
no binding	–	RLW-KPC1 Δ 1-1253 (enzyme, also called KPC1 species xv) RLWCPICYAHPISAVFQPCGHKSCKACINQHLMNNKDCFFCKTTIVSVEDWEKGANTSTTSSAA
no binding	–	WIL-KPC1 Δ 1-1253 (enzyme, also called KPC1 species xx) WILCPICYAHPISAVFQPCGHKSCKACINQHLMNNKDCFFCKTTIVSVEDWEKGANTSTTSSAA
no binding	–	KPC1Δ1-1017 (FLAG-tagged) (enzyme, Lacks amino acids 1-1017; also called KPC1 species x) LLQQGPDVAPSFLNSVLNQLNWAFSEFIGMIQEIQQAAERLERNFVDSRQLKVCATCFDLSVSLLRVLEMTITLVPEIFLDWTRPTSEMLLRRLAQLLNQVLNRVTAERNLFDRVVTLRLPGLESVDHYPILVAVTGILVQLLVRGPASEREQATSVLLADPCFQLRSICYLLGQPEPPAPGTALPAPDRKRFSLQSYADYISADELAQVEQMLAHLTSASAQAAAASLPTSEEDLCPICYAHPISAVFQPCGHKSCKACINQHLMNNKDCFFCKTTIVSVEDWEKGANTSTTSSAA
